Measured values as given in the supplement of paper PMC9170038.

Test system: K4 kissing-loop RNA reporter
Assay: apparent KD of K4 kissing-loop reporter; higher = weaker reporter binding
Conditions: Eterna round: R107
Protocol: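 RNA-MaP round R107: designed RNA switches with theophylline, tryptophan, arginine or FMN aptamers are transcribed on-chip within common flanks. They are titrated with a labelled K4 kissing-loop RNA reporter in RNA-MaP buffer (100 mM Tris pH 7.5, 80 mM KCl, 4 mM MgCl2), without ligand or with the indicated ligand. Median apparent KD per design.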

[1] = input ligand: theophylline 20 uM
[2] = input ligand: tryptophan 2.4 mM
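Also: bound reporter read as fluorescence of individual clusters on recovered sequencing chips by microscopy, with normalized cluster intensities fitted with a binding model.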

| Sequence | apparent KD of K4 kissing-loop reporter (input ligand: FMN 200 uM) [nM] | apparent KD of K4 kissing-loop reporter (input ligand: arginine 13.2 mM) [nM] | apparent KD of K4 kissing-loop reporter (input ligand: none) [nM] | apparent KD of K4 kissing-loop reporter [1] [nM] | apparent KD of K4 kissing-loop reporter [2] [nM] |
| --- | --- | --- | --- | --- | --- |
| GGUCGAGUGAUGUUCGAUGUAGUGCAUUCAGAGGAUAUAGGAUGGGCUAGAAGGCUGAAAGGUGCUUCGAGUGAUGUUCGAGGAU [Exclusion FMN A GF 3] | 105 | 80.7 | 126 | 115 | 89 |
| GGUGACAACCAGAAGUGAUGUAUAGAAUAGCGAGGACCGGUACGGCCGCCACUCGUGAAGAGAAAGGAGUGAUGUUCCGUAAUGG [Kazoo C4] | 250 | 260 | 271 | 243 | 85.1 |
| GGUGACGGCCAGGAGUGAUGUAUAGAAUAGCGAGGACCGGUACGGCCGCCACUCGUGAAGAAAAGGGAGUGAUGUUCCGUAAUGG [Kazoo B] | 380 | 284 | 450 | 229 | 302 |
| GGUGCUGUCUGUGCCGCCCUCCUCGUCCCUCGAGGACCGGUACGGCCGCCACUCGAGUGAUGUUCGGGUAGCCAUCCCUGCUAGC [Bdazzled - #19 Exc. Tryptophan A] | 647 | 666 | 680 | 590 | 937 |
| GGUUUAUAAGAGGAUACCAGUACAAAUAAAGUACAUUAAUAGUAGAGUGAUGUUCUAAAGUACCCUUGGCAGCUUAGAUUAAGUU [ExTheophylB.F] | 114 | 226 | 151 | 217 | 85.4 |
| GGUUUAUAGGAGGAUACCAGUACGAAUAAAGUACAUUAAUAGUAGAGUGAUGUUCUAAAGUACCCUUGGCAGCUUAGAGUAAGUU [#18 K4 Theophylline B Exclusion] | 105 | 212 | 148 | 223 | 80.5 |
| GUACGCUCUCGAGUGAUGUUCGGUAAUAGUUAGGAUAUCGCUUUUGCGAGAAGGAACUGAAUGAGGAAACUCGUUCUGAGUGUAC [FMN A 18] | 618 | 183 | 342 | 398 | 239 |
| GUACGCUCUCGAGUGAUGUUCGGUAAUCGCGAGGAUAUCGCUUUUGCGAGAAGGCGCGGAAUGAGGAAACUCGUUCUGAGUGUAC [FMN A 23] | 364 | 444 | 461 | 637 | 715 |
| GUAGAUAGGCUACAUCUCUAGUCUAAACACUAGGAUAUCAGGAAACUGAGAAGGAGUGUCAUUGGAGUGAUGUUCCAAGAAUAAU [KL-SSFMN-A17] | 166 | 195 | 185 | 225 | 167 |
| GUAGGAUGAGGAGGAGGAUGAAAUACUGAAGGAGCGCAGAGAAAUGCAGGUAGGUCGCGGUAAGGAAGUAUAGUGAUGUUAUAUA [#07 K4 Arginine A Same State] | 414 | 367 | 664 | 755 | 449 |
| GUAGGAUGAGGAGGAGGAUGAAUUACUGAAGGAGCGCAAAGAAAUGCAGGUAGGUCGCGGUAAAGAAGUAUAGUGAUGUUAUAUA [SSArgA.E] | 400 | 301 | 413 | 426 | 310 |
| GUAUAUCGAACUGAUACCAGAGAAUAAAGCAGUGAUGUUGCAUAUAUAAAUAAGACUCGACUCCCUUGGCAGCGGGAAGAUAUAC [On purpose 1] | 170 | 231 | 197 | 280 | 146 |
| GUAUCGCUAGGAGGAUAUUCCAUUUUACAUAGAAAUGGCUAUGCGAAGUGAUGUUUCGAUUUACGGGAAGAAGGCCUAGUGAUAC [FMN B 22] | 160 | 148 | 148 | 177 | 155 |
| GUAUCGCUAGGAGGAUAUUUCAAUUUGACUCUUUGAGUUAAUACGGAGUGAUGUUCCGUUUUACGGAAAGAAGGCCUAGUGAUAC [FMN B 14] | 115 | 150 | 192 | 172 | 166 |
| GUAUGUGGAAACACGUACUUAUAUCCUCGACAGGAUAUGCGGAAACGCAGAAGGGUCGCCAACGAGUUUAUCCAGUGAUGUUGGA [Ex FMN A 15] | 347 | 296 | 362 | 335 | 350 |
| GUAUGUGGAAACACGUACUUGUAUCCUAGGAAGGAUAUGCGGAAACGCAGAAGGUCCACCGGCGAGUUUAUCCAGUGAUGUUGGA [Ex FMN A 10] | 260 | 275 | 274 | 318 | 248 |
| GUCCACACUGCAGGAUAUGGAGAAAUAGCGAGGGAGCUUGGAAGCACGCCUCUGGCAGUGAUGUUGCCAGAAGGGCGGUGCGGCG [Dilazasole] | 106 | 76.9 | 75.2 | 76.9 | 80.8 |
| GUCUUACUAUAGGAUACCAGCAUGCAAGGAGUGAUGUUCCCGUCAUAUGAGGAGUACCGCUGCCCUUGGCAGCCUCUUGUAAGUU [theeternabot_sameState_KL_Theo_B_1] | 502 | 253 | 353 | 411 | 316 |
| GUGCAAAGCACCGGCACGAGCAGCUUAAAGGAGGAUAUGACGAAAGUCAGAAGGUUUAGUGAUGUUAGGCCUUGCUUGAGUCGAA [#01 K4 FMN A Exclusion] | 326 | 265 | 282 | 413 | 270 |
| GUGCGGCUAGUGAUGUUGGUUGCGUGGGAAGGAGCGCAGAAACAUGCAGGUAGGUCGCCCACACCUCUGAAAGGAGGCUAAUUCA [Bisobi] | 277 | 128 | 163 | 213 | 134 |
| GUGGCACGAAAGUGCCACGCAUCCUCUGGCUAGGAUAUCUGGAAACAGAGAAGGAGCUCAUGAGUGAUGUUCAUCUAGAGGAUGC | 827 | 537 | 1010 | 978 | 947 |
| GUGGCGGGCCAAGGAUAUAUUUUGGAGUGAUGUUGUUCAUUUAUUUGAGCUAGUGAUGUUGGUCGAAUAGAAGGUGGCCCGCCAC [whbob_Ex_FMNB__2th220] | 69.9 | 27.2 | 52.8 | 44.7 | 45.8 |
| GUGUCCUAGUCGGCCGCCACUGGGUGCAAAAUAGAAGGAGCAUUGCACAUCAGUGAUGUUGAUGUCAGGACCGGGACUAGGGUGU [KL-SSTryp-B5 Brourdwalk1] | 652 | 406 | 597 | 563 | 439 |
